# Source: patent US20240324599A1, “PESTICIDAL ENZYMES FOR USE ON NEMATODES, INSECTS, AND MOLLUSKS” (priority 2023, published 2024)
# Read-outs that look alike come from different tables or passages of the source.
# B1: PpII Lipase: free lipase from porcine pancreas Type II (PpII) (protein, UniProt P00591 1-450, looked up)
# Pancreatic triacylglycerol …: SEVCFPRLGCFSDDAPWAGIVQRPLKILPWSPKDVDTRFLLYTNQNQNNYQELVADPSTITNSNFRMDRKTRFIIHGFIDKGEEDWLSNICKNLFKVESVNCICVDWKGGSRTGYTQASQNIRIVGAEVAYFVEVLKSSLGYSPSNVHVIGHSLGSHAAGEAGRRTNGTIERITGLDPAEPCFQGTPELVRLDPSDAKFVDVIHTDAAPIIPNLGFGMSQTVGHLDFFPNGGKQMPGCQKNILSQIVDIDGIWEGTRDFVACNHLRSYKYYADSILNPDGFAGFPCDSYNVFTANKCFPCPSEGCPQMGHYADRFPGKTNGVSQVFYLNTGDASNFARWRYKVSVTLSGKKVTGHILVSLFGNEGNSRQYEIYKGTLQPDNTHSDEFDSDVEVGDLQKVKFIWYNNNVINPTLPRVGASKITVERNDGKVYDFCSQETVREEVLLTLNPC
# B2: Pseudomonas sp. Esterase (protein, listed as Pseudomonas sp.)
# chain: MTEPLILQPVKPADACVIWLHGLGADRYDFLPVAEALQEILLSTRFVLPQAPTRPVTINGGYAMPSWYDIKAMSPARAIDRDELEASADRIIELIEEQRSSGIDASRIFLAGFSQGGAVVYHTAFLKWQGPLGGVLALSTYAPTFSDELELSASQQRIPVLSLHGQFDNVVQNSMGRTAYEYLKAHGVTVTWQEYPMEHEVLPEEIRDIGTWLSERLR
# B3: Sphingobium wenxiniae (PytH) Esterase (protein, listed as Sphingobium wenxiniae)
# chain: MTVTDIILIHGALNRGACYDAVVPLLEARGYRVHAPDLTGHTPGDGGHLSVVDMEHYTRPVADILARAEGQSILLGHSLGGASISWLAQHHPDKVAGLIYLTAVLTAPGITPETFVLPGEPNRGTPHALDLIQPVDEGRGLQADFSRLERLREVFMGDYPGEGMPPAEQFIQTQSTVPFGTPNPMEGRALEIPRLYIEALDDVVIPIAVQRQMQKEFPGPVAVVSLPASHAPYYSMPERLAEAIADFADAPAEYRQTATKAGPDRPAGADGGRADRADLP
# B4: Beauveria bassiana Feruloyl Esterase A2 (protein, listed as Beauveria bassiana)
# chain: MLSLLGFLGFAALAAAAPVRDQAFIPRTLVNRSIYDKLALYAGYTQLSNTGICARPSVPGVLYQFVESKDTDTQVSIWKVDAYKEFVIAIPGTSSARDNETNFDFALVPYQADNVRCPSCRVHKGYQAAWRSVMKQVQGNLTNLLGIHPDYTVTLTGHSLGGGLVSIAFPTLRNGPYNVTQAYTYGQPRAGNGAFANYVDGISGASDKEAGIFYRVTHANDLIPKLPPGIFGYKHSRTEYWESKPSMDNAASTYRCYGQEPADCNRNATGIDSKVHVTYAGMNVTCNKS
# modifications: Feruloyl Esterase A2
# B5: Rhizopus oryzae Esterase (protein, listed as Rhizopus oryzae)
# chain: SDGGKVVAATTAQIQEFTKYAGIAATAYCRSVVPGNKWDCVQCQKWVPDGKIITTFTSLLSDTNGYVLRSDKQKTIYLVFRGTNSFRSAITDIVFNFSDYKPVKGAKVHAGFLSSYEQVVNDYFPVVQEQLTANPTYKVIVTGHSLGGAQALLAGMDLYQREPRLSPKNLSIFTVGGPRVGNPTFAYYVESTGIPFQRTAHKRDIVPHVPPQSFGFLHPGVESWIKSGTSNVQICTSEIETKDCSNSIVPFTSILDHLSYFDINEGSCL
# modifications: Rhizopus cf. oryzae
# What was measured:
# Type in all cases: in vivo
# [1] = tested on: Fall armyworm (Spodoptera frugiperda); experiment: Diet-surface overlay (DSO) bioassay; settings: Table 46
# Description: Diet-surface overlay bioassays are conducted with artificial diet mixes without antibiotics in 1.5 cm^2 cell bioassay trays(s). Artificial diets are commercially available from Southland Products Inc. Diets were prepared by dispersing 0.5 mL of molten diet to each 1.5 cm^2 cell. After solidification, 0.1 mL enzyme treatments were dispersed on top of diet in each cell and the tray was gently rocked in an orbital shaker to spread the liquid uniformly over the diet surface. Trays were placed under clean airflow until the surface of each cell was uniformly dried. One or two 16-cell sections were used per treatment (the number in larvae treated was 16 or 32).
# One healthy first instar larva was placed into each treatment cell, each 16-cell section was covered with a re-sealable lid and incubated at 27° C. and light-dark period of 16:8 hrs. After 7 days, and according to the species, the number of individuals in the following developmental categories was recorded.
# Negative/untreated controls were treated with filtered water and positive controls were treated with lethal doses of Bacillus thuringiensis subsp. Kurstaki (Btk) spores at 1000 ppm.
# [2] = tested on: Garden snails (Cornu aspersum); experiment: Antifeedant and molluscicide bioassay (artificial diet): consumption, survival, weight gain; settings: n = 12, 12 days
# Description: Two-week old garden snails (Cornu aspersum) and full-size black gloss snails (Zonitoides nitidus) were maintained in a semi-darkened tank at 68-70° F. at high humidity, provided with a wet sponge in a petri dish. Snails were transferred to fresh tank every 2-3 days, and they were feed ad libitum with cucumber slices supplemented with calcium carbonate tablets. Individuals were reared in the laboratory for at least a week to fully acclimate to laboratory conditions prior to testing. The individuals ranged between 3 weeks to 2 months old at the time of bioassay.
# Filter-sterilized recombinant enzymes including proteases and lipases were prepared as indicated in Example 25. Corresponding controls (e.g., buffer, fermentation of non-recombinant strain, water) were be prepared accordingly. Enzymes were dried by mixing them with Polyvinylpyrrolidone K30 (Thermo Sci Chem, Cat #227545000) at a ratio of 60 mg PVP per mL of enzymes, dispersed on a petri dish and allowed to dry in a bio-safety hood for 24-48 hours.
# The treatments were prepared by mixing 0.4 g of dry enzyme and 1 gram of artificial diet mix. The artificial diet mix consisted of flour supplemented with 30 mg sucrose per gram of flour. Control diet contained 0.4 g of PVP and 1 g of artificial diet mix.
# 12 snails were randomly assigned to each treatment, labeled with permanent marker on the top of the shell for identification, and their weight (mg) was recorded before treatment. Then snails were transferred to dry plastic containers containing two petri dishes. Humidity was maintained with a folded and soaked light duty tissue paper in one petri dish. 1 g of treatment was provided as a thin layer on the other petri dish and was replaced every other day. At the time of treatment replacement, treatment consumption, weight, and mortality were recorded.
# [3] = tested on: soybean cyst nematode (SCN, Heterodera glycines); experiment: Controlled environment soybean seed treatment trial: SCN cysts on roots; settings: Table 16
# [4] = tested on: SCN juveniles (SCN HG type 1.2.5.7, race 2)
# From the text: To identify an additional esterase enzyme with efficacy in reducing SCN viability, we performed an in-vitro plate assay with a Pseudomonas sp. esterase (SEQ ID NO: 248) free enzyme direct treatment. The Pseudomonas sp. esterase (SEQ ID NO: 248) was produced by fermentation in Bacillus subtilis. The enzyme was cloned into a Bacillus expression plasmid p1797 with isopropyl β-d-1-thiogalactopyranoside (IPTG) inducible expression. The plasmid was transformed into B. subtilis, and the gene sequence was confirmed. The strain was grown in rich media until an optical density (OD) 0.2-0.5 was reached. Enzyme expression was then induced by addition of […] IPTG. Following the culture harvest, cells were removed by filtration through a […] filter. The culture filtrate containing the secreted enzyme was then collected and used for further applications.
# (§1) SCN eggs were obtained from SCN HG type 1.2.5.7, race 2. Eggs were rinsed 4 times with sterile water. Eggs were transferred to a 6-well plate and resuspended in 5 mL of 3 mM ZnSO4. The plate was sealed with parafilm, covered with aluminum foil to prevent light from entering the plate, and placed in a plate growth chamber at 25° C. and 80% relative humidity. After 6-7 days of incubation, an estimate of hatched SCN juveniles was obtained from the well to determine the overall number of juveniles per 10 μL. The concentration of the hatchery solution was adjusted until it consisted of 20-30 juveniles per 10 μL.
# Potato dextrose agar media containing chloramphenicol and chlortetracycline was prepared and added to sterile twenty-four-well cell culture plates (1 mL per well). The plates were divided according to the pre-determined N-value for each treatment (N=12-24). Each treatment being tested was added to the agar surface within each well at a rate of 40 μL per well. Without allowing the treatments to dry, 10 μL of the prepared nematode mixture was added to the agar surface within each well.
# To quantify the treatments' effects on nematode viability, the nematodes were examined under a dissecting microscope at 20× magnification. Initial (T0) values for the number of live juveniles, number of dead juveniles and total number of juveniles were recorded immediately after preparation of each well. The plates were then wrapped in parafilm around the open edge, encased in aluminum foil, and placed in secondary containment. The secondary containment was placed in a plant growth chamber at 25° C. and 80% relative humidity. At approximately 24 hours post addition of juveniles, the plates were evaluated, and the number of live juveniles, dead juveniles and total number of juveniles were recorded (T24).
# The difference in percent death at T0 vs T24 was calculated by subtracting the percent dead at TO [(#dead juveniles/total #juveniles)×100] from the percent dead at T24 [(#dead juveniles/#total juveniles originally present)×100]. […] If the ANOVA indicated a significant difference existed among treatments, Tukey's HSD post hoc test was used to perform a pairwise contrast between each set of treatments. Different letters denote statistically significant results at P<0.05.
# as §1, with “from” for “from SCN”, “rinsed four” for “rinsed 4”, “and 80-90%” for “and 80%”, “from each” for “from the”
# Potato dextrose agar media containing chloramphenicol and chlortetracycline was prepared and added to sterile twenty-four-well cell culture plates (1 mL per well). […]
# [5] = tested on: corn; experiment: Field trial: PytH Esterase corn seed treatment, yield; settings: for Yield: corn seed treatment, 0.5 fl oz/unit with Control Base Package
# From the text: 0.5 fl oz/unit of PythH Esterase from recombinant Bacillus subtilis fermentation (SEQ ID NO: 255) was coated onto Hybrid corn seeds treated with Fludioxinil fungicide, ipconazole fungicide, peridium 1006 polymer, and Sensient Red (colorant). A control treatment without esterase enzyme was also created. The seed treated with esterase and control seed was planted in replicated trials distributed across 10 replicated plots with 4 replicates of 100 ft2 each at each site.
# [6] = tested on: soybean; experiment: Field trial: Feruloyl Esterase soybean seed treatment, yield; settings: for Yield: soybean seed treatment, 1.0 fl oz/unit with Control Base Package
# From the text: 1 fl oz/unit of Feruloyl Esterase (SEQ ID NO:91) was coated onto soybean seeds treated with Fludioxinil fungicide, metalaxyl fungicide, thiamethoxam […], Seedwork 1037L polymer, and Sensient Red (colorant). A control treatment without esterase enzyme was also created. The seed treated with esterase and control seed was planted in replicated trials distributed across 5 replicated plots with 4 replicates of 30 ft^2 each at each site.
# [7] = tested on: corn; experiment: Greenhouse trial: Rhizopus oryzae Esterase corn seed treatment, plant height
# Description: Rhizopus oryzae Esterase (carboxylesterase, SEQ ID NO:253) was coated onto 6049 V2 hybrid corn seeds. A water only control treatment without esterase enzyme was also created. The seed treated with esterase and control seed was planted in replicated greenhouse trials on promix soil with a fluctuating day/night temperature of 78° F./75° F., and 13 hours of light daily. Plant heights were measured on day 10 for each plant emerged from the soil.
molecule,measurement,setting,value
B1,Dead Larva,"[1]; individuals of n = 32 after 7 days, U/mL diet: Bc 3.8, Pf 5.2, PpII 0.4, Rm 2.8, Lipase nd, water 2",0
same,Larva Stage I,"[1]; n = 32, doses as E92, water 0",2
same,Larva Stage II,"[1]; n = 32, doses as E92, water 0",5
same,Larva Stage III,"[1]; n = 32, doses as E92, water 0",15
same,Larva Stage IV,"[1]; n = 32, doses as E92, water 30",10
same,Dead Snails,"[2]; Table 62, lipases, garden snail, control diet 0",0
same,Diet consumption,"[2]; Table 62, lipases, garden snail, control diet 1.16",0.82 gr
same,"food consumption, in words","[2]; text to Table 62, lipases",consistent reduction in food consumption
B2,% Comparison to Control,"[3]; base control = 100%, change in brackets",90% (−10%)
same,Average cysts per g of root tissue,"[3]; seed treatment, soybean 2830E3, concentrate = 4× volumetric concentration, base control 244.3",220.2 cysts per g of root tissue
same,Difference in Percent Death of Nematodes for 0 to 24 Hours,"[4]; Table 17, 40 μL per well, water control 4%",22%
same,Difference in Percent Death of Nematodes for 0 to 24 Hours,"[4]; Table 32, 40 μL of each treatment per well, water only 4%",22%
same,difference in percent death during 24 hours,[4]; text to Table 32,22%
B3,Yield,[5]; control 205.5,208.8 Bu/A
same,Yield,[5]; control 13820.1,14042.0 Kg/ha
same,"yield versus base seed treatment package, in words","[5]; text to Table 57, 0.5 fl oz/unit",increased the yield
B4,Yield,[6]; control 63.99,64.86 Bu/A
same,Yield,[6]; control 4303.4,4361.9 Kg/ha
same,"yield versus base seed treatment package, in words","[6]; text to Table 56, 1 fl oz/unit",increased the yield
B5,Height as % of Control,"[7]; Table 60, corn seed treatment 0.5 fl oz/unit, plant height on day 10, water control 100%",103.7%
same,"growth rate of corn, in words",[7]; text to Table 60,increase the growth rate
